Assay results reported in the supplement of paper PMC10065799, “High-throughput profiling of sequence recognition by tyrosine kinases and SH2 domains using bacterial peptide display” (eLife, 2023).

Each sequence was assayed on AncSZ (assay: phosphorylation enrichment, bacterial display (enrichment ratio); higher = better substrate or ligand; peptides without Tyr show the background).
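Further: 11-residue human phosphosite peptides and single-mutation variants displayed on the E. coli surface, counted by deep sequencing, each peptide's frequency after selection divided by its frequency in the unselected input library; frequency after pTyr selection over input frequency; kinase dosed for 20-30% of maximal phosphorylation in three min.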

First: IMAYFYMCDSA [CASD1_Y382_R386S]
Second: RLMLQYDAVVN [SLC25A32_Y152]
The phosphorylation enrichment of the first is higher: 1.38 for the first, 1.32 for the second.

Compared with RTMPDYTSFNT [EPHB2_Y912_I909M], FADIAYNYRHG [PAH_Y166] is lower in phosphorylation enrichment: 1.38 for the first, 0.711 for the second.

Going from SREDIYKRNTE [PDE4DIP_Y45_I49T] to RENGPYFASFP [GDAP2_Y487_T489A_YF], the phosphorylation enrichment rises from 0.8 to 1.17.

First: VGTKRYMASEV [ACVRL1_Y375_P378S]
Second: QLRPGYFPIPV [BAG3_Y93_I94F]
The phosphorylation enrichment of the first is lower: 0.564 for the first, 0.6 for the second.

Going from HIAKGYRRDNP [HARS1_Y156_V155G] to KASGKYFAMKI [AKT3_Y173_YF], the phosphorylation enrichment falls from 0.731 to 0.495.

Compared with KDFNKYVAFIE [KDM4B_Y31_YF], MGSYNYLGFPR [SPTLC2_Y178_A182P] is higher in phosphorylation enrichment: 0.799 for the first, 0.806 for the second.

First: HNLNYYKKTTN [FGFR3_Y648_D646N]
Second: WVFNHYRWIIW [BRCA2_Y2624_YF]
The phosphorylation enrichment of the first is lower: 0.791 for the first, 1.29 for the second.

Going from MSRDVYSTDFF [NTRK2_Y702_YF] to NNKKDYFDMFE [SLC26A3_Y526_K521N_YF], the phosphorylation enrichment rises from 0.691 to 1.08.

First: NWGSPYKSNGC [ZNF347_Y261]
Second: FTNRNYDLDFD [MYC_Y12_YF]
The phosphorylation enrichment of the first is lower: 0.894 for the first, 1.36 for the second.

Compared with KQNSLYSFSDH [CCDC82_Y331], DPLLTHRFPPK [LMNA_Y481_Y481H] is lower in phosphorylation enrichment: 1 for the first, 0.434 for the second.

Compared with MFDKEYFSVHN [MET_Y1234_YF], MSSLFYANALF [HOXB7_Y6_T9A_YF] is lower in phosphorylation enrichment: 1.31 for the first, 0.975 for the second.

First: GVTLLYFGRDN [ADGRD1_Y85_Y89D_YF]
Second: EHIEFYELDKK [PMM2_Y145_R141H]
The phosphorylation enrichment of the first is lower: 0.887 for the first, 1.01 for the second.

Compared with LRRREYQRQDY [PRKRIP1_Y90], NTVLGYFIGRI [GARS1_Y408] is higher in phosphorylation enrichment: 0.841 for the first, 0.973 for the second.

Compared with KASIMYPSSNC [CXCL11_Y52_N55S], HMEAVYIDIAD [PITPNA_Y140_V136M] is higher in phosphorylation enrichment: 0.629 for the first, 3.91 for the second.

Compared with KLRMESLSLMH [NCKIPSD_Y660_Y660S], ITLKGYNLSNS [GNPTAB_Y728_K732N] is higher in phosphorylation enrichment: 0.658 for the first, 0.66 for the second.

Compared with QGIFGYHHFMQ [UFSP2_Y287_YF], GFSDPYVKAFL [SYT3_Y470_S474F] is lower in phosphorylation enrichment: 1.32 for the first, 0.693 for the second.

With CEHRGSLYLAI [TEK_Y897_Y897S] the phosphorylation enrichment was 1.13.

The sequences below were run against EPHB1 (UniProt P54762) in the same assay as above.
Chain of EPHB1 (P54762 whole entry, looked up): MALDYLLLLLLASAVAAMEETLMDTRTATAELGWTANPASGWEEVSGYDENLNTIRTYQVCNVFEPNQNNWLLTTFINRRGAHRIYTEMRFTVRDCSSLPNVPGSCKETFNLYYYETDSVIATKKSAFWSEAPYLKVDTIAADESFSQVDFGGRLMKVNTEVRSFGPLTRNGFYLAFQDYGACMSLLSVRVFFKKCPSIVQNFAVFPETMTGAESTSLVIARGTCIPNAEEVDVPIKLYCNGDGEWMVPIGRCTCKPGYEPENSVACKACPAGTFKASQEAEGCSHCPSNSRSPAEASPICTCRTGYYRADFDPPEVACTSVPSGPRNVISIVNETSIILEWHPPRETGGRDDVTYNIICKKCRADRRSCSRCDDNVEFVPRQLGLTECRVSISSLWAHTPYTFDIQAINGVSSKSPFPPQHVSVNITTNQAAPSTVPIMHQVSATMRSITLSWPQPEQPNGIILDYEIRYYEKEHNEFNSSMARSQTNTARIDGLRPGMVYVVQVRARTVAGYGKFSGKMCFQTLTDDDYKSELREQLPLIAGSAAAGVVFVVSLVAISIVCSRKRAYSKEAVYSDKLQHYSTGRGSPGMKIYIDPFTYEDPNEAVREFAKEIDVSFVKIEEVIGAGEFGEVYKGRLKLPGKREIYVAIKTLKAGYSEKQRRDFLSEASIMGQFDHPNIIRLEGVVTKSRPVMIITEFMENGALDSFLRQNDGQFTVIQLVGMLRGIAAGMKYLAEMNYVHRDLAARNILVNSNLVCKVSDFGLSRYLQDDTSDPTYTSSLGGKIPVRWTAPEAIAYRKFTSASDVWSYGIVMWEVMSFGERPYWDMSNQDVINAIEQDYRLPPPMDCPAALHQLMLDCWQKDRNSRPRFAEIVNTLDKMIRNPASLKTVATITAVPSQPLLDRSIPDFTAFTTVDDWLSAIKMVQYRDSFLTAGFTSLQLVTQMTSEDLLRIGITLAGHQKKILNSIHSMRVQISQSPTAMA

Compared with IMAYFYMCDSA [CASD1_Y382_R386S], RLMLQYDAVVN [SLC25A32_Y152] is lower in phosphorylation enrichment: 0.845 for the first, 0.733 for the second.

Compared with RTMPDYTSFNT [EPHB2_Y912_I909M], FADIAYNYRHG [PAH_Y166] is lower in phosphorylation enrichment: 0.724 for the first, 0.45 for the second.

Going from SREDIYKRNTE [PDE4DIP_Y45_I49T] to RENGPYFASFP [GDAP2_Y487_T489A_YF], the phosphorylation enrichment falls from 0.62 to 0.443.

Going from VGTKRYMASEV [ACVRL1_Y375_P378S] to QLRPGYFPIPV [BAG3_Y93_I94F], the phosphorylation enrichment rises from 0.406 to 0.448.

Going from HIAKGYRRDNP [HARS1_Y156_V155G] to KASGKYFAMKI [AKT3_Y173_YF], the phosphorylation enrichment rises from 0.363 to 0.372.

Compared with KDFNKYVAFIE [KDM4B_Y31_YF], MGSYNYLGFPR [SPTLC2_Y178_A182P] is higher in phosphorylation enrichment: 0.43 for the first, 5.53 for the second.

Compared with HNLNYYKKTTN [FGFR3_Y648_D646N], WVFNHYRWIIW [BRCA2_Y2624_YF] is higher in phosphorylation enrichment: 0.337 for the first, 0.611 for the second.

Going from MSRDVYSTDFF [NTRK2_Y702_YF] to NNKKDYFDMFE [SLC26A3_Y526_K521N_YF], the phosphorylation enrichment rises from 0.756 to 1.12.

Going from NWGSPYKSNGC [ZNF347_Y261] to FTNRNYDLDFD [MYC_Y12_YF], the phosphorylation enrichment rises from 0.459 to 0.751.

Compared with KQNSLYSFSDH [CCDC82_Y331], DPLLTHRFPPK [LMNA_Y481_Y481H] is lower in phosphorylation enrichment: 0.853 for the first, 0.288 for the second.

First: MFDKEYFSVHN [MET_Y1234_YF]
Second: MSSLFYANALF [HOXB7_Y6_T9A_YF]
The phosphorylation enrichment of the first is lower: 0.605 for the first, 0.764 for the second.

First: GVTLLYFGRDN [ADGRD1_Y85_Y89D_YF]
Second: EHIEFYELDKK [PMM2_Y145_R141H]
The phosphorylation enrichment of the first is higher: 0.633 for the first, 0.4 for the second.

Going from LRRREYQRQDY [PRKRIP1_Y90] to NTVLGYFIGRI [GARS1_Y408], the phosphorylation enrichment falls from 0.706 to 0.48.

Compared with KASIMYPSSNC [CXCL11_Y52_N55S], HMEAVYIDIAD [PITPNA_Y140_V136M] is higher in phosphorylation enrichment: 0.411 for the first, 9.76 for the second.

First: KLRMESLSLMH [NCKIPSD_Y660_Y660S]
Second: ITLKGYNLSNS [GNPTAB_Y728_K732N]
The phosphorylation enrichment of the first is higher: 0.423 for the first, 0.385 for the second.

First: QGIFGYHHFMQ [UFSP2_Y287_YF]
Second: GFSDPYVKAFL [SYT3_Y470_S474F]
The phosphorylation enrichment of the first is higher: 0.794 for the first, 0.595 for the second.

For CEHRGSLYLAI [TEK_Y897_Y897S], the phosphorylation enrichment was 0.714.
